According to publication PMC5030135 (Nature chemical biology, 2016):

Molecular target: GDI.Cdc42 FLARE biosensor, wild type (Cdc42 with an N-terminal FRET binding antenna) (UniProt P60953 1-191)
Assay: FRET or BRET

GDI.Cdc42 FLARE biosensor, wild type (Cdc42 with an N-terminal FRET binding antenna), sequence (P60953 whole entry): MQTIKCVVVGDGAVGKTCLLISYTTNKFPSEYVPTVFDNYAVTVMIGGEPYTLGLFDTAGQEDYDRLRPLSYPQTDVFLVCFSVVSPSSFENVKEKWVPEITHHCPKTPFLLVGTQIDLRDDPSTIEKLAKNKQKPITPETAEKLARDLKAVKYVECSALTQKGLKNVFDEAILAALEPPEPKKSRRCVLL

increase in FRET/CFP emission ratio: 218%
B1: RhoGDI1 (RhoGDIα), wild type, unlabeled, co-expressed in excess (natural protein)
chain: MAEQEPTAEQLAQIAAENEEDEHSVNYKPPAQKSIQEIQELDKDDESLRKYKEALLGRVAVSADPNVPNVVVTGLTLVCSSAPGPLELDLTGDLESFKKQSFVLKEGVEYRIKISFRVNREIVSGMKYIQHTYRKGVKIDKTDYMVGSYGPRAEEYEFLTPVEEAPKGMLARGSYSIKSRFTDDDKTDHLSWEWNLTIKKDWKD
